Test results reported in paper PMC5564421.
Like-named read-outs stand apart in the source and are kept apart here.

Experiments:
[1] = biological target: WT* iso-1-Cytc (K72A variant of yeast iso-1-cytochrome c, with C102S) (yeast); assay: SEC
[2] = biological target: WT* iso-1-Cytc (K72A variant of yeast iso-1-cytochrome c, with C102S) (yeast); assay: SEC; remark: listed apart in the source
[3] = biological target: WT* iso-1-Cytc (K72A variant of yeast iso-1-cytochrome c, with C102S) (yeast); assay: SEC; remark: listed apart in the source
[4] = biological target: WT* iso-1-Cytc (K72A variant of yeast iso-1-cytochrome c, with C102S) (yeast); assay: SEC; remark: listed apart in the source
[5] = biological target: WT* iso-1-Cytc (K72A variant of yeast iso-1-cytochrome c, with C102S) (yeast); assay: SEC; remark: listed apart in the source
[6] = biological target: WT* iso-1-Cytc (K72A variant of yeast iso-1-cytochrome c, with C102S) (yeast); assay: crystal structure
[7] = biological target: Cytc from equine heart (equine) (UniProt P00004); assay: SEC
[8] = biological target: Cytc from equine heart (equine) (UniProt P00004); assay: SEC; remark: listed apart in the source

Cytc from equine heart, P00004 1-105 (natural protein; other documents disagree on this pair), sequence (P00004 whole entry): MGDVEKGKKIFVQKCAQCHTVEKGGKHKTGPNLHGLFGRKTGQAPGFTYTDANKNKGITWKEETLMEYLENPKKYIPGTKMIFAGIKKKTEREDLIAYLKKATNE

koff [1] | koff [2] | koff [3] | koff [4] | koff [5] | stoichiometry N [6] | koff [7] | lifetime of the dimer [7] | koff [8] | Substance
0.0034 s⁻¹ | 0.00055 s⁻¹ | 1.6e-05 s⁻¹ | 6.1e-05 s⁻¹ | 6.5e-06 s⁻¹ | 2 |  |  |  | WT* iso-1-Cytc (K72A variant of yeast iso-1-cytochrome c, with C102S) (natural protein)
 |  |  |  |  |  | 1.5e-05 s⁻¹ | 7.4 days | 1.6e-06 s⁻¹ | Cytc from equine heart, P00004 1-105 (natural protein; other documents disagree on this pair)
